Assay results taken from the supplement of paper PMC9732359.
± gives the uncertainty stated by the source.

Experiment: protein stability index of a GFP-peptide fusion (yeast GPS) (PSI 1-4); higher = more stable; sorted into four equal gates, so the index is relative within each strain
Conditions: doa10∆
Procedure, shortened: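 Sequencing reads from sorted gates were used to score each peptide. The library consisted of tiled 17-residue yeast protein peptides fused downstream of GFP on a Cherry-expressing plasmid, pooled and carried in yeast. Mid-log cultures in leucine-free medium were split into four equal gates by GFP/Cherry ratio, and each gate's plasmids were PCR-amplified and Illumina-sequenced. The protein stability index adds up, over all gates, the read frequency multiplied by the gate number.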

| Sequence | protein stability index |
| --- | --- |
| LTKKEKKEANLFPEQQN [RPL6A] | 3.08 ± 0.072 |
| LTKKEKKEANLFPEQQT [RPL6B] | 3.08 ± 0.073 |
| LTKLNEDDLVGVVQMVT [TAF14] | 2.89 ± 0.086 |

Same assay, conditions: pdr5∆

| Sequence | protein stability index |
| --- | --- |
| LLGARHYTPAVDLWSVG [SSN3] | 1.15 ± 0.19 |
| LLGYTGIPTDKGPRFRK [PRE8] | 3.02 ± 0.14 |
| LLHHVSELDSNDFFIIY [YJL039C/NUP192] | 1.74 ± 0.088 |
| LLKGPASTVAKTAPIQE [YOR098C/NUP1] | 2.46 ± 0.094 |
| LLKLLTRLVQLREFRIT [GRR1] | 1.27 ± 0.044 |
| LLKPFHVKVNDKKEMTI [SIR3] | 2.58 ± 0.15 |
| LLKQYPKDSSSTFREWK [YJR042W/NUP85] | 2.6 ± 0.048 |
| LLMSCPRLSHLSLTAVP [GRR1] | 1.57 ± 0.054 |
| LLNAADRDALSGWGAVV [PUP3] | 3.2 ± 0.099 |
| LLQLKYFSNKTSTGIIR [POP5] | 1.84 ± 0.13 |
| LLRFNGVERLIPVGDNT [PRE4] | 1.73 ± 0.07 |
| LLSDVVSTSSGAAANNN [YJL041W/NSP1] | 3.06 ± 0.11 |
| LLSGEDLTLDDISLKAD [YJL039C/NUP192] | 3.39 ± 0.065 |
| LLSSESNIPTLIEKLQG [YDL116W/NUP84] | 3.01 ± 0.11 |
| LLTPDIGAVYSGMGPDY [PRE8] | 1.72 ± 0.074 |
| LLYADSLTAEAMTAAEH [CYT1] | 2.67 ± 0.054 |
| LMASVILDSLPSVIHSS [YDL116W/NUP84] | 1.38 ± 0.039 |
| LMDDMSDISDLDDLGFL [RPN3] | 1.81 ± 0.059 |
| LMDKCLPKVRIRTRRAA [DIS3] | 1.34 ± 0.048 |
| LMEKNRIRKLTGQNFLT [REC8] | 1.37 ± 0.038 |
| LMLEDTDGDSILYYDVL [BRR2] | 3.17 ± 0.092 |
| LMRELLKMMKLIVDTHV [PRP8] | 1.34 ± 0.06 |
| LMYQIKKECALLISYGV [SRB4] | 3.09 ± 0.16 |
| LNAIILKLEKLNTNRTF [SMC3] | 2.31 ± 0.051 |
| LNAITLDGDRADKRGVL [SMC3] | 3.1 ± 0.17 |

| Sequence | protein stability index |
| --- | --- |
| LNAIVSKNSPAEDDVII [YJR042W/NUP85] | 3.37 ± 0.17 |
| LNDEGEPIKVNVRVGQA [RPN1] | 3.03 ± 0.062 |
| LNDSNVKSFKPHLLKQG [RRP42] | 3.25 ± 0.18 |
| LNEALLQCPMLYVESTG [CSN12] | 1.26 ± 0.09 |
| LNEFFTRELAEEGYSGV [RPS3] | 1.82 ± 0.12 |
| LNEIELDNLKLKELRID [GRR1] | 3.09 ± 0.11 |
| LNINNPNFLIMQGKITK [SMC2] | 2.47 ± 0.19 |
| LNKAGKPFRQTKFKVRG [RPL38] | 3.33 ± 0.069 |
| LNKLYGGAKSRGVRPYK [RPS19A] | 3.3 ± 0.18 |
| LNLINAKLWFYIYLSHE [RPN3] | 1.23 ± 0.056 |
| LNLLNYQELFIQPKNSD [YML103C/NUP188] | 2.21 ± 0.056 |
| LNPQVADINKNFLSVIT [RPN2] | 2.19 ± 0.053 |
| LNRLPAASLGDMVMATV [RPL23A] | 1.78 ± 0.072 |
| LNSLLTYIKSEITQQEK [SMC4] | 2.04 ± 0.055 |
| LNSLSPQAILAKNSIID [SWI1] | 1.72 ± 0.029 |
| LNSMPNNVNEYSYTTIV [YJL039C/NUP192] | 2.95 ± 0.092 |
| LPEIAKEIYTTLGNQML [YJR042W/NUP85] | 2.42 ± 0.087 |
| LPEPTEGFAADDEPTTP [FAS1] | 2.65 ± 0.099 |
| LPGDMLAVCDELGNMTM [SIN4] | 2.77 ± 0.072 |
| LPGTNNNSNSNNNSSNE [SEC65] | 2.69 ± 0.054 |
| LPLDSQDDEYVKDWLYD [PRP8] | 3.39 ± 0.088 |
| LPLQAQQQLYGGNNNNN [SWI1] | 2.92 ± 0.07 |
| LPNKSTISKTVSSTIPR [FAS2] | 2.63 ± 0.077 |
| LPVASPFHSHLLVPASD [FAS1] | 1.62 ± 0.062 |
| LPYNWDALEMQWRYLYD [ARP7] | 2.1 ± 0.073 |

| Sequence | protein stability index |
| --- | --- |
| LQAIQEKLNKTDENTPS [ITC1] | 3.08 ± 0.061 |
| LQDLEEAKSFQDEAELV [RPC82] | 3.3 ± 0.15 |
| LQDLSRYSRQFINNVLS [GRR1] | 2.29 ± 0.049 |
| LQDWQREDEFGSIPSLT [YDL088C/ASM4] | 3.19 ± 0.066 |
| LQGIVIWDSQKFFIMIV [POP4] | 1.91 ± 0.064 |
| LQGVTYPVLRKLYKKIA [YIL149C/MLP2] | 1.79 ± 0.056 |
| LQISDIPAAGNNRSVSM [SRB5] | 2.35 ± 0.07 |
| LQKKFVTKQSELNSSED [SMC1] | 3.52 ± 0.26 |
| LQKSSKSMITSEGEQKS [YAR002W/NUP60] | 2.97 ± 0.047 |
| LQLELTIEDIAVAITRA [RPO31] | 2.12 ± 0.044 |
| LQLLPLQKAVRGHVLQF [SNF2] | 1.29 ± 0.041 |
| LQMDYKDDMKVDDAIEL [PRE9] | 3.42 ± 0.081 |
| LQNDLIHKIQNDNNLKK [RPN5] | 3.24 ± 0.068 |
| LQNIVMDCTKEEEATMT [YIL149C/MLP2] | 3.3 ± 0.1 |
| LQNKPDAKKARFWSFMK [SIR4] | 2.68 ± 0.13 |
| LQNNINNSNNNNIIRIQ [SNF11] | 2.57 ± 0.13 |
| LQQKHELDTASRILKAQ [YGR119C/NUP57] | 2.83 ± 0.046 |
| LQRHSGISSTLVSANND [YLR018C/POM34] | 2.87 ± 0.064 |
| LQYGWKVERHIMDNDPV [RPO21] | 1.21 ± 0.12 |
| LRDIGECENEIKTKQMS [SMC2] | 3.29 ± 0.092 |
| LRDREDWGQALRLLLLL [YJR042W/NUP85] | 2.13 ± 0.067 |
| LRDRNFSATGNFGFGID [RPL11A] | 3.28 ± 0.072 |
| LRDSLADKIVDEFPELK [NUT2] | 2.41 ± 0.069 |
| LRGCKFLQSVDITGIRD [GRR1] | 2.03 ± 0.046 |
| LRIGRIEDVTPVPSDST [RPS14B] | 2.98 ± 0.043 |

| Sequence | protein stability index |
| --- | --- |
| LRLCLDIVPYFLKHNGE [RPN1] | 2.01 ± 0.037 |
| LRQFKTCPVEVIKRLEA [BRR2] | 3.23 ± 0.17 |
| LRQLLKERYTVEDELTE [RRI1] | 2.71 ± 0.15 |
| LRRTTQRVFDETEQEYS [YDL116W/NUP84] | 3.03 ± 0.046 |
| LRTEYGWDSLASRNVWS [SNU114] | 3.11 ± 0.12 |
| LRYVKQIEGPFLIIVPK [ISW2] | 2.3 ± 0.059 |
| LSALDHYERTQTKENKR [RPN8] | 2.82 ± 0.087 |
| LSEDKKKLDYVLALKVE [RPS9A] | 2.22 ± 0.23 |
| LSETNGLHKFVKGDLLQ [PRE10] | 3.28 ± 0.23 |
| LSIPGKSTPEGTLWAHV [SNU114] | 3.09 ± 0.064 |
| LSKEVPFSYLIDETMMD [SRB5] | 2.36 ± 0.066 |
| LSLEEVEGHLFEIIDEA [FAS1] | 3.29 ± 0.1 |
| LSLNLGDYGSAKCNSLL [POP5] | 2.94 ± 0.077 |
| LSNCLANARDFGEWAGM [BRR2] | 2.41 ± 0.095 |
| LSRGYTCPGLSLTDVAF [ECM29] | 3.19 ± 0.084 |
| LSRLQKSGRINGFHGRL [SMC4] | 3.57 ± 0.15 |
| LSRYVKWPEYVRLQRQK [RPL8B] | 2.71 ± 0.24 |
| LSSLKSFAIYSSTIDAP [SRB8] | 1.57 ± 0.034 |
| LSSNITFDGKPTATPSP [YMR153W/NUP53] | 3.03 ± 0.058 |
| LSSVALRSDFYILANHY [YJL039C/NUP192] | 2.28 ± 0.13 |
| LSTLEPSTSITLAERQQ [RPN9] | 2.91 ± 0.058 |
| LSWCPSRFSPEKLAVSA [YGL100W/SEH1] | 2.57 ± 0.11 |
| LTIGVKFFMKHGLILEL [SRB5] | 1.62 ± 0.052 |
